Source: US20240376218A1 (published 2024)
Residue numbers refer to the chain shown, from its start. Values belong to the binder of their own block, whether it stands above or below them.

How the values were obtained:
murine CCR8 [1] = biological target: T1, murine CCR8 (mouse, UniProt P56484 1-353); assay: cell-based or functional assay
T1 sequence: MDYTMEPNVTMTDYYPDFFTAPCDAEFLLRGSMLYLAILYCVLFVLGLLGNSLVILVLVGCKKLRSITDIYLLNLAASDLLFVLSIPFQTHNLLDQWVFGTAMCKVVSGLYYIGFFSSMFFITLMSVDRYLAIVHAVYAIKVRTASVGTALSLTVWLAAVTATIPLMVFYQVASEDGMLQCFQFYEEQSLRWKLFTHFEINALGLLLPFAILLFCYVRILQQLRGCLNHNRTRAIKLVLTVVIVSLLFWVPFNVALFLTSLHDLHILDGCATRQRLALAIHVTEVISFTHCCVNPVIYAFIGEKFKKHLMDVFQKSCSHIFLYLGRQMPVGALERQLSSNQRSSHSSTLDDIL

murine CCR8 [2] = biological target: T2, murine CCR8 (mouse, UniProt P56484 1-353); assay: cell-based or functional assay; remark: listed apart in the source
T2 sequence: T1 sequence

human CCR8 [3] = biological target: T3, human CCR8 (human, UniProt P51685 1-355); assay: FACS, HuT78 cells endogenously expressing human CCR8
T3 construct: also called hCCR8; P51685_CCR8_HUMAN

[4] = biological target: T4, FcRn immobilized on FcRn column (Roche, Order No. 8128057001); assay: FcRn affinity chromatography, linear pH gradient
T4 construct: bought prepacked column; also called immobilized FcRn
Method: 30 μL of each antibody (1 mg/mL in equilibration buffer) was applied to the column.

murine CCR8 [5] = biological target: T2, murine CCR8; assay: cell-based or functional assay; remark: listed apart in the source
human CCR8 [6] = biological target: T5, human CCR8 (human, UniProt P51685 1-355); assay: cell-based or functional assay
human CCR8 [7] = biological target: T5, human CCR8; assay: cell-based or functional assay; remark: listed apart in the source
human CCR8 [8] = biological target: T5, human CCR8; assay: cell-based or functional assay; remark: listed apart in the source

B1: TPP-15285 (antibody, mouse IgG2a)
heavy: EVQLLESGGGLVQPGGSLRLSCAASGFTFSDYGVHWVRQAPGKGLEWVSGVSWNGSRTHYADSVKGRFTISRDNSKNTLYLQMNSLRAEDTAVYYCVTRGAWGQGTLVTVSSAKTTAPSVYPLAPVCGDTTGSSVTLGCLVKGYFPEPVTLTWNSGSLSSGVHTFPAVLQSDLYTLSSSVTVTSSTWPSQSITCNVAHPASSTKVDKKIEPRGPTIKPCPPCKCPAPNLLGGPSVFIFPPKIKDVLMISLSPIVTCVVVDVSEDDPDVQISWFVNNVEVHTAQTQTHREDYNSTLRVVSALPIQHQDWMSGKEFKCKVNNKDLPAPIERTISKPKGSVRAPQVYVLPPPEEEMTKKQVTLTCMVTDFMPEDIYVEWTNNGKTELNYKNTEPVLDSDGSYFMYSKLRVEKKNWVERNSYSCSVVHEGLHNHHTTKSFSRTPGK
light: QSVLTQPPSASGTPGQRVTISCSGSSFNIGSHFVYWYQQLPGTAPKLLIYKNNQRPSGVPDRFSGSKSGTSASLAISGLRSEDEADYYCAAWDDSLNGPVFGGGTKLTVLGQPKSSPSVTLFPPSSEELETNKATLVCTITDFYPGVVTVDWKVDGTPVTQGMETTQPSKQSNNKYMASSYLTLTARAWERHSSYSCQVTHEGHTVEKSLSRADCS
ADCC EC50 (pM); murine CCR8 expressing HEK293 target cells, primary murine NK effector cells (murine CCR8 [1]): 111 pM

B2: TPP-15285 (antibody, mouse IgG2a)
heavy: B1 heavy
light: B1 light
ADCP EC50 (pM); murine CCR8 expressing HEK293 target cells, murine bone marrow derived M2 macrophages (murine CCR8 [2]): 402 pM

B5: TPP-14095 (antibody, human IgG1, lambda, V domains shown)
VH: EVQLLESGGGLVQPGGSLRLSCAASGFTFSSYGMHWVRQAPGKGLEWVSAISGSGGSTYYADSVKGRFTISRDNSKNTLYLQMNSLRAEDTAVYYCARGRQLGSWGQGTLVTVSS
VL: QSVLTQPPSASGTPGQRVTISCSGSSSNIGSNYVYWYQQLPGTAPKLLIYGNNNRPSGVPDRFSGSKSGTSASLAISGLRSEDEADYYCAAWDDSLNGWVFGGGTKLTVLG
Ca flux assay IC50 (nM), block of signaling induced by CCL1 at 40 ng/ml; CHO cells expressing murine CCR8 (murine CCR8 [5]): 1.65 nM

B6: TPP-17577 (antibody, human IgG1, lambda, V domains shown)
VH: EVQLLESGGGLLQPGGSLRLSCAASGFTFSNAWMSWVRQAPGKGLEWVAVISYDGRNKYSADSVKGRFTISRDNSKNTLYLQMNSLRAEDTAVYYCARGLPYGYWGQGTLVTVSS
VL: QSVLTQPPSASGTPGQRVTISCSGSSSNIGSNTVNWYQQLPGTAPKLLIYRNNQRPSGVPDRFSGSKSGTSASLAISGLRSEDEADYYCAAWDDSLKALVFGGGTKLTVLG
Ca flux assay IC50 (nM), block of signaling induced by CCL1 at 80 ng/ml; CHO cells expressing human CCR8 (human CCR8 [6]): 93.8 nM

More lines, now with the values ahead:

EC50 (human CCR8 [3]): 3.25 nM
B3: TPP-27495 (antibody, human IgG1, lambda)
heavy: EVQLLESGGGLVQPGGSLRLSCAASGFTFSSYGMHWVRQAPGKGLEWVSAINWNGGSTGYADSVKGRFTISRDNSKNTLYLQMNSLRAEDTAVYYCARGHHSGYDGRFFDYWGQGTLVTVSSASTKGPSVFPLAPSSKSTSGGTAALGCLVKDYFPEPVTVSWNSGALTSGVHTFPAVLQSSGLYSLSSVVTVPSSSLGTQTYICNVNHKPSNTKVDKKVEPKSCDKTHTCPPCPAPELLGGPSVFLFPPKPKDTLYITREPEVTCVVVDVSHEDPEVKFNWYVDGVEVHNAKTKPREEQYNSTYRVVSVLTVLHQDWLNGKEYKCKVSNKALPAPIEKTISKAKGQPREPQVYTLPPSRDELTKNQVSLTCLVKGFYPSDIAVEWESNGQPENNYKTTPPVLDSDGSFFLYSKLTVDKSRWQQGNVFSCSVMHEALHNHYTQKSLSLSPGK
light: not shown
notes: 70% afucosylated

pH at Elution [4]: 7.88 pH
B4: TPP-27495 (antibody, human IgG1, lambda)
heavy: B3 heavy
light: not shown
modifications: 70% afucosylated

Ca flux assay IC50 (nM), block of signaling induced by CCL1 at 80 ng/ml; CHO cells expressing human CCR8 (human CCR8 [6]): 4.53 nM
B7: TPP-17578 (antibody, human IgG1, lambda, V domains shown)
VH: EVQLLESGGGLVQPGGSLRLSCAASGFTFSNAWMSWVRQAPGKGLEWVSGINWNGGSTGYADSVKGRFTISRDNSKNTLYLQMNSLRAEDTAVYYCVRTYSGHYGPYFDNWGQGTLVTVSS
VL: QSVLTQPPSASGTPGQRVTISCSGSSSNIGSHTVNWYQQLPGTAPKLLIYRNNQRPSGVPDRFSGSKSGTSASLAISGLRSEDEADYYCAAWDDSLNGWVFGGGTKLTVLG

Ca flux assay IC50 (nM), block of signaling induced by CCL1 at 60 ng/ml; CHO cells expressing human CCR8 (human CCR8 [7]): 0.29 nM
B8: TPP-21045 (antibody, human IgG1, lambda, V domains shown)
VH: B7 VH with N31S, N52S, N54S, D62L, V97A, Y107F, N110Y
VL: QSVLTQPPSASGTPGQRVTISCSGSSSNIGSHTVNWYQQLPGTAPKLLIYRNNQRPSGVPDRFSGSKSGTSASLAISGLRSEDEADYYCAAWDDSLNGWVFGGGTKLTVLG

Ca flux assay Span ratio (from max to min), block of signaling induced by CCL1 at 60 ng/ml; CHO cells expressing human CCR8 (human CCR8 [8]): ~11400
Ca flux assay IC50 (nM), block of signaling induced by CCL1 at 60 ng/ml; CHO cells expressing human CCR8 (human CCR8 [7]): 0.52 nM
B9: TPP-20955 (antibody, human IgG1, lambda, V domains shown)
VH: EVQLLESGGGLVQPGGSLRLSCAASGFTFSSYGMHWVRQAPGKGLEWVSAIKWGGGSHGYADSVKGRFTISRDNSKNTLYLQMNSLRAEDTAVYYCARGHHKGYDGRFFDYWGQGTLVTVSS
VL: QSVLTQPPSVSGAPGQRVTISCTGSSSNIGAGYNVHWYQQLPGTAPKLLIYTNNRRPSGVPDRFSGSKSGTSASLAISGLRSEDEADYYCAAWDASLSGWVFGGGTKLTVLG
